According to patent US20210283246A1:

Target: HBsAg (patient serum)
Assay: Jacalin-bead fractionation of patient serum, HBsAg measured by CLIA

Jacalin lectin (from UniProt P18670 1-133)
share of the total serum HBsAg that binds to Jacalin: 5%
